Consider one molecule from patent US20130129731A1 (SAMSUNG ELECTRONICS, published 2013).

For test [1], the target named is T1, human c-Met antigen (Biacore analyte) (human, UniProt P08581 25-932, limits assumed). The experiment in a line: SPR (Biacore), antibody immobilised on a CM5 chip, c-Met antigen injected. The procedure: (§1) Binding affinity of the IGTML4-4 antibody constructed in Example 1 to c-Met antigens was analyzed using a Biacore (available from GE Healthcare).
On the technique in general: SPR reads the build-up and loss of mass on a sensor chip optically.

Test [2] addresses T2, mouse c-Met antigen (Biacore analyte) (mouse, UniProt P16056 25-931, limits assumed). The test is described as above. The procedure: as §1
The target in another test is T3, BSA (Takara) (Bos taurus, UniProt P02769).
T3 construct: commercial protein
The experiment in a line: ELISA, antigen coated on the plate, detection with goat anti-human IgG-HRP, absorbance at 450 nm. (In general: An ELISA detects its analyte on a solid surface through an enzyme-linked reagent.)

The target of test [3] is c-Met on human cells (Caki-1 cells, HUVECs, human primary hepatocytes) (human, UniProt P08581 25-1390). The experiment in a line: cell-based or functional assay.
For test [4], the target named is T1, human c-Met antigen (Biacore analyte). The experiment in a line: SPR (Biacore), antibody immobilised on a CM5 chip, c-Met antigen injected. How it is done:
as §1
The source holds these as a separate data set.

For test [5], the target named is T2, mouse c-Met antigen (Biacore analyte). The description is as above. How it is done:
as §1
The source holds these as a separate data set.

Read-outs that look alike come from different tables or passages of the source.

T2 sequence (P16056 25-931 limits assumed): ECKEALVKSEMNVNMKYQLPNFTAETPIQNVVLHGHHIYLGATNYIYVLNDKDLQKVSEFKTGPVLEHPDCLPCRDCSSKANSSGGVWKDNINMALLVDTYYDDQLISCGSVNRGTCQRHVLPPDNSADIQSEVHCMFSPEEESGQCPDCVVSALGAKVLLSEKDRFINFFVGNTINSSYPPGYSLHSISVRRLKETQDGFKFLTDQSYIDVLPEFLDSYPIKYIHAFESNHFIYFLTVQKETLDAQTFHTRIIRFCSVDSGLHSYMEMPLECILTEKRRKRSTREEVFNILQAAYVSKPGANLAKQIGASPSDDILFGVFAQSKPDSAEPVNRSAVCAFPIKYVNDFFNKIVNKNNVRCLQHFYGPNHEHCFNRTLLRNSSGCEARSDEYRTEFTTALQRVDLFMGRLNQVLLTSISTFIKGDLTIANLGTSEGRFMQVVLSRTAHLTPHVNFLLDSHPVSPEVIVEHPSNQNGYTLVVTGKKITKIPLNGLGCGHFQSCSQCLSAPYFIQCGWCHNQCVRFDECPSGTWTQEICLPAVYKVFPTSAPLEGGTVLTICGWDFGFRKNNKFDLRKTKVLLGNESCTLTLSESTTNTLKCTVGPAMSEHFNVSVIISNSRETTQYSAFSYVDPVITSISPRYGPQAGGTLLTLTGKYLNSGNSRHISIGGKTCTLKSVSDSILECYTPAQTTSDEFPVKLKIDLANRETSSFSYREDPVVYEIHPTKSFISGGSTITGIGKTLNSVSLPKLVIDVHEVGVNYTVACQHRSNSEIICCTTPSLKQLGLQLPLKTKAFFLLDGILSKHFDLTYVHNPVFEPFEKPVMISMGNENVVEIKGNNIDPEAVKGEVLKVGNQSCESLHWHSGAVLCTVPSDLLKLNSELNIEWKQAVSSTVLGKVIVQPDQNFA
T1 sequence (P08581 25-932 limits assumed): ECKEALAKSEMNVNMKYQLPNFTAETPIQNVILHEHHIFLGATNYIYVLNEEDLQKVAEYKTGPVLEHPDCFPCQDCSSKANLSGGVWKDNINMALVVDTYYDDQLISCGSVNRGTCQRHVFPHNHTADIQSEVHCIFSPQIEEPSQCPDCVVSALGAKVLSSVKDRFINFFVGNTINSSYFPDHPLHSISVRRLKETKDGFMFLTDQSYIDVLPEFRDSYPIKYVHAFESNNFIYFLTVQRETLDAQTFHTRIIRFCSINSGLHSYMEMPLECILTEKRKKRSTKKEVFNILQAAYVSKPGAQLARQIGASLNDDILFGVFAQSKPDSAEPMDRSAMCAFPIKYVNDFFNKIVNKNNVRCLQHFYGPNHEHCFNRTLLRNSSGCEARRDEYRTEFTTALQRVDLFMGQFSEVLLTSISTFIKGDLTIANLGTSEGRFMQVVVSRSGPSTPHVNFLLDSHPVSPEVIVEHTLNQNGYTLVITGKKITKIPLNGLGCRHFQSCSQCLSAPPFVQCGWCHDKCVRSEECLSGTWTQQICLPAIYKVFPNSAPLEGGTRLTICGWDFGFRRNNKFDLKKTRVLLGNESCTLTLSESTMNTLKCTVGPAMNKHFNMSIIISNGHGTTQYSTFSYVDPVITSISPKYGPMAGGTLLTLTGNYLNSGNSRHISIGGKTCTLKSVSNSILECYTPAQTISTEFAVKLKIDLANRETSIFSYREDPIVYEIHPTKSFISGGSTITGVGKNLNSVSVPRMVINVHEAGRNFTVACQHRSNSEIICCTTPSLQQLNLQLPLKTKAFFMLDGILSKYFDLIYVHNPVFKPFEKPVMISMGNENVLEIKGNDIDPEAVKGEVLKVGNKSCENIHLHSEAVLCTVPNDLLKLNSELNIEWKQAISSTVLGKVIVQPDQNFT
Chain of c-Met on human cells (Caki-1 cells, HUVECs, human primary hepatocytes) (P08581 25-1390): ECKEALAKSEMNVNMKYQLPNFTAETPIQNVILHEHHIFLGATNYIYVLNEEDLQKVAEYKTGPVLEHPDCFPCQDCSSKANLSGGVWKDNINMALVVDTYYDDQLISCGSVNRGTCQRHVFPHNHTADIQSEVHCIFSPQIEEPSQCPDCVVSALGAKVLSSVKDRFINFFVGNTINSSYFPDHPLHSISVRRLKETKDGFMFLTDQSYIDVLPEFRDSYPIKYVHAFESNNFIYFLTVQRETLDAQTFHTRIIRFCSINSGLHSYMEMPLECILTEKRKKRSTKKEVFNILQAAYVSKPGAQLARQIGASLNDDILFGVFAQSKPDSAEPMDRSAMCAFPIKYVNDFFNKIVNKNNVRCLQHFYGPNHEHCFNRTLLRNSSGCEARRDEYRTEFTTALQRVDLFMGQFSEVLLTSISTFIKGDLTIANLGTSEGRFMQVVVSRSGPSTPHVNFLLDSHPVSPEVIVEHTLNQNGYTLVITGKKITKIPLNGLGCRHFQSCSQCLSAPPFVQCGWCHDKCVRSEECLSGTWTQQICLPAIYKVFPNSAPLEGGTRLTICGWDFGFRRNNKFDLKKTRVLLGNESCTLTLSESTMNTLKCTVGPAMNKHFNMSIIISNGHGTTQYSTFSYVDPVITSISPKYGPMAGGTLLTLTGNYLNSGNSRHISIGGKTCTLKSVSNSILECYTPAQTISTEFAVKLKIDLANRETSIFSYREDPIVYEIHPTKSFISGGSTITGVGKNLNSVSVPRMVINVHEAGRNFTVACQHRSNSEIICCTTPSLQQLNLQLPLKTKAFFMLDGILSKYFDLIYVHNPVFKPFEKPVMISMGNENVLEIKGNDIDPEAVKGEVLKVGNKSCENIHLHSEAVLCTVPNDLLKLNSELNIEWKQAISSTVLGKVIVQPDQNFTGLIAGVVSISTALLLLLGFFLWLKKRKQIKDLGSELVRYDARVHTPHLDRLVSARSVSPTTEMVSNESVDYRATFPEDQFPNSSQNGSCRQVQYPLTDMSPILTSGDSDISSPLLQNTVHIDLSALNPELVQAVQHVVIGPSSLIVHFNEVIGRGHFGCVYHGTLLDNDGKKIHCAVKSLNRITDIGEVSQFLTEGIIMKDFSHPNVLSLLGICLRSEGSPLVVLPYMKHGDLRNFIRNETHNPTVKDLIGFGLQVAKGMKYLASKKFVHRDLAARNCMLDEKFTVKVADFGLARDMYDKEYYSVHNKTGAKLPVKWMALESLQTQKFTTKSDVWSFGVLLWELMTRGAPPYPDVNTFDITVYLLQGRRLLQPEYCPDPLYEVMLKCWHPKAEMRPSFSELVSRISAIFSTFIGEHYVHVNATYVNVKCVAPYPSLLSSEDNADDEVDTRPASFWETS
T3 sequence (P02769 25-607 limits assumed): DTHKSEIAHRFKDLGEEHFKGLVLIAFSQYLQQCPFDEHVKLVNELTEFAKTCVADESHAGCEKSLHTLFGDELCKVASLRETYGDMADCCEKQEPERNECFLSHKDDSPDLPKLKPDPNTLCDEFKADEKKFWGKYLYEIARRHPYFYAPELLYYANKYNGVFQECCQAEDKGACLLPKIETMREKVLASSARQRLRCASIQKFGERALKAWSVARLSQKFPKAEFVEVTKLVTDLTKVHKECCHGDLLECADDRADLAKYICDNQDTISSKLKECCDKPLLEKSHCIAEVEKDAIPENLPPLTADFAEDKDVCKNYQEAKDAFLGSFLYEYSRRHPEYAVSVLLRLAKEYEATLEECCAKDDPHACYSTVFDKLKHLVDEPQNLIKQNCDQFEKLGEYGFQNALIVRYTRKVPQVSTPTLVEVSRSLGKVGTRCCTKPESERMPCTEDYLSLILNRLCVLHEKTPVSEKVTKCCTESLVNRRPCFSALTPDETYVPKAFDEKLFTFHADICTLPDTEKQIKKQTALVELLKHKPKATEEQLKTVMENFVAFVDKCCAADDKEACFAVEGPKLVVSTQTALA

B1: IGTML4-4 antibody (antibody, V domains shown)
VH: QVQLLQSGGGLVQPGGSLRVSCAASGFRFSMYVMTWVRQAPGKGLEWVSEISASGASTYYADSVKGRFTMSRDNSKNTVFLQMNSLRVEDTAVYYCARAYRYGMDVWGQGTMVTVSS
VL: DIVMTQSPSSVSASVGDRVTLTCRASQNIGSWLAWYQQKPGNAPKLLIYRASNLRSGVPSRFSGSGSGTDFTLTISSLQPEDFATYFCQQATIFPLTFGGGTRVDIKR
notes: also called anti c-Met antibody
Regarding B1, the Kd in test [1] was 398 pM; in test [2], 304 pM; in test [4], less than 1000 pM; in test [5], less than 1000 pM. For the same molecule, the koff in test [1] stood at 0.000188 s⁻¹; in test [2] it was 0.000168 s⁻¹. In addition, the kon is 471000 M⁻¹ s⁻¹ in test [1] and 553000 M⁻¹ s⁻¹ in test [2]. Besides, the binding result with BSA (Takara) is recorded as “no binding”. Also, the “degree of Akt phosphorylation relative to the 5D5 antibody (Caki-1 cells, 5 µg/ml antibody, phospho-AKT1 Ser473 sandwich ELISA)” value in test [3] is approximately 84%.

As a reminder, the Kd is the equilibrium constant for the complex coming apart. High values mean a looser complex, low ones a tighter complex. As a reminder, the koff is the first-order rate constant of dissociation. A higher koff goes with a short-lived complex. For orientation: kon means a measure of how fast the partners come together. Low values mean slow association, high ones fast association.
